Experimental data as given in PMC2148115.

Molecular target: Tubulin (αβ-tubulin heterodimer) from pig brain (pig) (UniProt P02550)
Assay: AUC

- percent of the protein in the 19.5 S species, molar ratio to tubulin 0.43:1: 21%
- percent of the protein in the 28.5 S species, molar ratio to tubulin 0.43:1: 26%
Substance: MAP2C (from UniProt P15146-3 1-467) (natural protein)
